Results on 13 sequences are retold here after the DeepSol protein solubility set.

The nature of this data set: soluble on expression in E. coli; label from the status in PepcDB or PDB records.
For “AADALVRVDGFERTSSSNTVTDIVPGVVLNLTKAAEGTKVTLGVTADTSGLKGNLTAFAAAYNTANTLLKNSSSYNAETRTASALTGDSLVRGLQQQLRGQVSGSISELKALGLTIDKDGVMSFDGGKFDTAIAADGGAAAEALGKDSKFGSGLTKLLDANVNVNNGTLTLRSDSLNKQIKGFEADLDNLDARMEKLTDRYTAQFTAMETMISKMQGATGSLSSLLAI”, the “soluble on expression in E. coli” value is “not soluble”.

With “AAIGSCSKEYRVLLGQLQKQTDLMQDTSRLLDPYIRIQGLDVPKLREHCRERPGAFPSEETLRGLGRRGFLQTLNATLGCVLHRLADLEQRLPKAQDLERSGLNIEDLEKLQMARPNILGLRNNIYCMAQLLDNSDTAEPTKAGRGASQPPTPTPASDAFQRKLEGCRFLHGYHRFMHSVGRVFSKW”, the “soluble on expression in E. coli” value was “soluble”. For “AALVSISVSPTNSTVAKGLQENFKATGIFTDNSNSDITDQVTWDSSNTDILSISNASDSHGLASTLNQGNVKVTASIGGIQGSTDFKVTQAALTSIEVSPTRTSIAKGLTQKFTAIGIFTDNSKKDITDQVTWNSSSAIVSVSNLDNNKGLGKTNSVGNTTITATLGKVSGNTWFTVVPAVLTSIQINPVNPSLAKGLTQKFTATGIYSDNSNKDITSAVTWFSSDSSIATISNAQKNQGNAYGAATGATDIKATFGKVSSPVSTLSVTAAKLVEIQITPAAASKAKGLTERFKATGIFTDNSNSDITNQVTWNSSNTDIAEIKNTSGSKGITNTLTPGSSEISAALGSIKSSKVILKV” the value was “not soluble”; for “AAMTLASQIATQLLDIKAVYLKPEDPFTWASGIKSPIYTDNRVTLSYPKTRDLIENGFVETIKAHFPEVEVIAGTATAGIPHGAIIADKMTLPFAYIRSKPKDHGAGNQIEGRVLKGQKMVIIEDLISTGGSVLDAAAAASREGADVLGVVAIFTYELPKASQNFKEAGIKLITLSNYTELIAVAKLQGYITNDGLHLLKKFKEDQVNWQQ”, “soluble”; for “AAQAEREELAAGRMPGGGPQGAPAAAGGGGVSHRAGSRDCLPPAACFRRRRLARRPGYMRSSTGPGIGFLSPAVGTLFRFPGGVSGEESHHSESRARQCGLDSRGLLVRSPVSKSAAAPTVTSVRGTSAHFGIQLRGGTRLPDRLSWPCGPGSAGWQQEFAAMDSSETLDASWEAACSDGARRVRAAGSLPSAELSSNSCSPGCGPEVPPTPPGSHSAFTSSFSFIRLSLGSAGERGEAEGCPPSREAESHCQSPQEMGAKAASLDGPHEDPRCLSQPFSLLATRVSADLAQAARNSSRPERDMHSLPDMDPGSSSSLDPSLAGCGGDGSSGSGDAHSWDTLLRKWEPVLRDCLLRNRRQMEVISLRLKLQKLQEDAVENDDYDKAETLQQRLEDLEQEKISLHFQLPSRQPALSSFLGHLAAQVQAALRRGATQQASGDDTHTPLRMEPRLLEPTAQDSLHVSITRRDWLLQEKQQLQKEIEALQARMFVLEAKDQQLRREIEEQEQQLQWQGCDLTPLVGQLSLGQLQEVSKALQDTLASAGQIPFHAEPPETIRSLQERIKSLNLSLKEITTKVCMSEKFCSTLRKKVNDIETQLPALLEAKMHAISGNHFWTAKDLTEEIRSLTSEREGLEGLLSKLLVLSSRNVKKLGSVKEDYNRLRREVEHQETAYETSVKENTMKYMETLKNKLCSCKCPLLGKVWEADLEACRLLIQSLQLQEARGSLSVEDERQMDDLEGAAPPIPPRLHSEDKRKTPLKESYILSAELGEKCEDIGKKLLYLEDQLHTAIHSHDEDLIQSLRRELQMVKETLQAMILQLQPAKEAGEREAAASCMTAGVHEAQA”, “soluble”. For “AAQTTAAVEDMSMGAEDAPVTIVEYASFTCPHCANFEKEVLTPLKRDYIDTGKVRFTFREVYFDRYGLWAAMVARCGGEMRYFGIADLIFEQQKEWVTNDPAQVATNLRKIGKTAGLDDAALDACMNDQAKAEAMVAAFQKNSQADDITATPSLIINGTKHSNMSYEELKKIIDAELAK” the value was “not soluble”; for “AARSECKRSHKFVPGAWLAGEGVDVTSLRRSGSFPVDTQRFLRPDGTCTLCENALQEGTLQRLPLALTNWRAQGSGCQRHVTRAKVSSTEAVARDAARSIRNDWKVGLDVTPKPTSNVHVSVAGSHSQAANFAAQKTHQDQYSFSTDTVECRFYSFHVVHTPPLHPDFKRALGDLPHHFNASTQPAYLRLISNYGTHFIRAVELGGRISALTALRTCELALEGLTDNEVEDCLTVEAQVNIGIHGSISAEAKACEEKKKKHKMTASFHQTYRERHSEVVGGHHTSINDLLFGIQAGPEQYSAWVNSLPGSPGLVDYTLEPLHVLLDSQDPRREALRRALSQYLTDRARWRDCSRPCPPGRQKSPRDPCQCVCHGSAVTTQDCCPRQRGLAQLEVTFIQAWGLWGDWFTATDAYVKLFFGGQELRTSTVWDNNNPIWSVRLDFGDVLLATGGPLRLQVWDQDSGRDDDLLGTCDQAPKSGSHEVRCNLNHGHLKFRYHARCLPHLGGGTCLDYVPQMLLGEPPGNRSGAVW”, “soluble”; for “ADERLQFTATTLSGAPFDGASLQGKPAVLWFWTPWCPFCNAEAPSLSQVAAANPAVTFVGIATRADVGAMQSFVSKYNLNFTNLNDADGVIWARYNVPWQPAFVFYRADGTSTFVNNPTAAMSQDELSGRVAALTS”, “soluble”. For “ADGQQGAPLNSPNTYDVTTWRIKAHPEVTAQSDIGAVINDIIADIKQRQTSPDARPGAAIIIPPGDYDLHTQVVVDVSYLTIAGFGHGFFSRSILDNSNPTGWQNLQPGASHIRVLTSPSAPQAFLVKRAGDPRLSGIVFRDFCLDGVGFTPGKNSYHNGKTGIEVASDNDSFHITGMGFVYLEHALIVRGADALRVNDNMIAECGNCVELTGAGQATIVSGNHMGAGPDGVTLLAENHEGLLVTGNNLFPRGRSLIEFTGCNRCSVTSNRLQGFYPGMLRLLNGCKENLITANHIRRTNEGYPPFIGRGNGLDDLYGVVHIAGDNNLISDNLFAYNVPPANIAPAGAQPTQILIAGGDANVVALNHVVSDVASQHVVLDASTTHSKVLDSGTASQITSYSSDTAIRPTP” the value was “soluble”. For “ADINHGENVFTANCSACHAGGNNVIMPEKTLQKDALSTNQMNSVGAITYQVTNGKNAMPAFGGRLSDDDIEDVASFVLSQSEKSWN”, the “soluble on expression in E. coli” value is “soluble”. For “ADYVLAIDQGTTSSRAIVFDHSGEIYSTGQLEHDQIFPRAGWVEHNPEQIWNNVREVVGLALTRGNLTHEDIAAVGITNQRETAVVWDKTTGKPVYNAIVWQDTRTQKIVDELGGDEGAEKYKSIVGLPLATYFSGPKIKWILDNVEGAREKAEKGDLLFGNTDTWVLWNMTGGTEGGVHVTDVTNASRTMLMDLDTLSWREDIAADMGIPLSMLPDIRSSSEVYGHGRPRGLVPGVPIAGILGDQQAATFGQACFEVGQAKNTYGTGNFLLLNTGTEKVMSKNGLLTTVCYKIGDAPAVYALEGSIAVTGSLVQWLRDNLGMFEDAPDVEWLAGKVQDNGGAYFVPAFSGLFAPYWRPDARGALVGLTRYVNRNHIARAALEATAFQSREVVDAMNADSGVDLTELRVDGGMVANELLMQFQADQLGVDVVRPKVAETTALGAAYAAGIAVGFWKGEQDVIDNWAEDKRWSPSMESGERERLYRNWKKAVTKTMEWVDEDVEQ” the value was “soluble”. For “AEAAAAQAPAAGPGQMSFTFASPTQVFFNSANVRQVDVPTQTGAFGILAAHVPTLQVLRPGLVVVHAEDGTTSKYFVSSGSVTVNADSSVQLLAEEAVTLDMLDLGAAKANLEKAQSELLGAADEATRAEIQIRIEANEALVKALE” the value was “soluble”; for “AEGGFLEDAKTDLVLRNYYFNRDFRDHDAGKSLVDEWAQGFILKFSSGYTPGTVGVGLDAIGLFGVKLNSGRGTSNSELLPLHDDGRAADNYGRVGVAAKLRVSASELKIGEMLPDIPLLRYDDGRLLPQTFRGFAVVSRELPGLALQAGRFDAVSLRNSADMQDLSAWSAPTQKSDGFNYAGAEYRFNRERTQLGLWHGQLEDVYRQSYANLLHKQRVGDWTLGANLGLFVDRDDGAARAGEIDSHTVYGLFSAGIGLHTFYLGLQKVGGDSGWQSVYGSSGRSMGNDMFNGNFTNADERSWQVRYDYDFVGLGWPGLIGMVRYGHGSNATTKAGSGGKEWERDVELGYTVQSGPLARLNVRLNHASNRRSFNSDFDQTRLVVSYPLSW”, “soluble”.
